Results: patent US20240209086A1 (PETMEDIX, published 2024)
Numbering of substitutions follows the chain as printed.

B1: PMX172 in bispecific format (canine CD3 arm PMX172 x Rituximab arm, human IgG4PE knob-in-hole) (bispecific antibody)
heavy 1: EVQLVESGGDLVKPGGSLRLSCVASGFTFSSYHMSWVRQAPGKGLQWVAYSNSGGSRTSYADAVKGRFTISRDNAKNTLYLQMNSLRAEDTAVYYCASEGGGGRYGYKDYGMDYWGHGTSLFVSSASTKGPSVFPLAPCSRSTSESTAALGCLVKDYFPEPVTVSWNSGALTSGVHTFPAVLQSSGLYSLSSVVTVPSSSLGTKTYTCNVDHKPSNTKVDKRVESKYGPPCPPCPAPEFEGGPSVFLFPPKPKDTLMISRTPEVTCVVVDVSQEDPEVQFNWYVDGVEVHNAKTKPREEQFNSTYRVVSVLTVLHQDWLNGKEYKCKVSNKGLPSSIEKTISKAKGQPREPQVYTLPPSQCEMTKNQVSLSCAVKGFYPSDIAVEWESNGQPENNYKTTPPVLDSDGSFFLVSRLTVDKSRWQEGNVFSCSVMHEALHNRFTQKSLSLSLGK
light 1: SYVLTQLPSKNVTLKQPAHITCGGDNIGSKSVHWYQQKLGQAPVLIIYYDSSRPTGIPERFSGANSGNTATLTISGALAEDEADYYCQVWDSSAKAWVFGEGTQLTVLRTVAAPSVFIFPPSDEQLKSGTASVVCLLNNFYPREAKVQWKVDNALQSGNSQESVTEQDSKDSTYSLSSTLTLSKADYEKHKVYACEVTHQGLSSPVTKSFNRGEC
heavy 2: not shown
light 2: QIVLSQSPAILSASPGEKVTMTCRASSSVSYIHWFQQKPGSSPKPWIYATSNLASGVPVRFSGSGSGTSYSLTISRVEAEDAATYYCQQWTSNPPTFGGGTKLEIKRTVAAPSVFIFPPSDEQLKSGTASVVCLLNNFYPREAKVQWKVDNALQSGNSQESVTEQDSKDSTYSLSSTLTLSKADYEKHKVYACEVTHQGLSSPVTKSFNRGEC
B2: PMX192 in bispecific format (canine CD3 arm PMX192 x Rituximab arm, human IgG4PE knob-in-hole) (bispecific antibody)
heavy 1: EVQLVESGGDLVKPAGSLRLSCVASGFTFSDYSMSWVRQAPEKGLQLVAGINGDGSTTYYTDAVKGRFTISRDNAKNTVYLQMNSLRAEDTAMYYCAKGAGTGDFWGQGTLVTVSSASTKGPSVFPLAPCSRSTSESTAALGCLVKDYFPEPVTVSWNSGALTSGVHTFPAVLQSSGLYSLSSVVTVPSSSLGTKTYTCNVDHKPSNTKVDKRVESKYGPPCPPCPAPEFEGGPSVFLFPPKPKDTLMISRTPEVTCVVVDVSQEDPEVQFNWYVDGVEVHNAKTKPREEQFNSTYRVVSVLTVLHQDWLNGKEYKCKVSNKGLPSSIEKTISKAKGQPREPQVYTLPPSQCEMTKNQVSLSCAVKGFYPSDIAVEWESNGQPENNYKTTPPVLDSDGSFFLVSRLTVDKSRWQEGNVFSCSVMHEALHNRFTQKSLSLSLGK
light 1: SYELTQPPSVNVTLRETAHITCGGASIGRKYVQWIQQIPGQAPVVIIYKDSNRPTGIPERFSGANSGNTATLTISGALAEDEADYYCQVGDSGAWVFGEGTQLTVLRTVAAPSVFIFPPSDEQLKSGTASVVCLLNNFYPREAKVQWKVDNALQSGNSQESVTEQDSKDSTYSLSSTLTLSKADYEKHKVYACEVTHQGLSSPVTKSFNRGEC
heavy 2: not shown
light 2: B1 light 2
B3: PMX189 in bispecific format (canine CD3 arm PMX189 x Rituximab arm, human IgG4PE knob-in-hole) (bispecific antibody)
heavy 1: ELTLQESGPGLVKPSQTLSLTCVVSGGSVTNNYYWNWIRQRPGRGLEWMGYWTGSTKYNPAFQGRISITADTANNQFSLHLNSMSSEDTAVYYCARDRDRRVPHAYGYWGQGTLVTVSSASTKGPSVFPLAPCSRSTSESTAALGCLVKDYFPEPVTVSWNSGALTSGVHTFPAVLQSSGLYSLSSVVTVPSSSLGTKTYTCNVDHKPSNTKVDKRVESKYGPPCPPCPAPEFEGGPSVFLFPPKPKDTLMISRTPEVTCVVVDVSQEDPEVQFNWYVDGVEVHNAKTKPREEQFNSTYRVVSVLTVLHQDWLNGKEYKCKVSNKGLPSSIEKTISKAKGQPREPQVYTLPPSQCEMTKNQVSLSCAVKGFYPSDIAVEWESNGQPENNYKTTPPVLDSDGSFFLVSRLTVDKSRWQEGNVFSCSVMHEALHNRFTQKSLSLSLGK
light 1: B1 light 1 with W97S, E101G, Q104H
heavy 2: not shown
light 2: B1 light 2
B4: PMX191 in bispecific format (canine CD3 arm PMX191 x Rituximab arm, human IgG4PE knob-in-hole) (bispecific antibody)
heavy 1: EVQLVESGGDLVKPAGSLRLSCVASGFTFSDYSMSWVRQGPEKGLQLVAGMNSDGSTTYYTDAVRGRFTISRDNAKNTMYLQMNSLRDEDTAIYYCAKGAAAPDYWGQGTLVTVSSASTKGPSVFPLAPCSRSTSESTAALGCLVKDYFPEPVTVSWNSGALTSGVHTFPAVLQSSGLYSLSSVVTVPSSSLGTKTYTCNVDHKPSNTKVDKRVESKYGPPCPPCPAPEFEGGPSVFLFPPKPKDTLMISRTPEVTCVVVDVSQEDPEVQFNWYVDGVEVHNAKTKPREEQFNSTYRVVSVLTVLHQDWLNGKEYKCKVSNKGLPSSIEKTISKAKGQPREPQVYTLPPSQCEMTKNQVSLSCAVKGFYPSDIAVEWESNGQPENNYKTTPPVLDSDGSFFLVSRLTVDKSRWQEGNVFSCSVMHEALHNRFTQKSLSLSLGK
light 1: B2 light 1 with A25D, S26R, R29S, S51N, S92N, G93Y, A94T
heavy 2: not shown
light 2: B1 light 2
B5: PMX171 in bispecific format (canine CD3 arm PMX171 x Rituximab arm, human IgG4PE knob-in-hole) (bispecific antibody)
heavy 1: B1 heavy 1 with V23E, S51I, S53N, R57G, Y95F, G103K
light 1: B1 light 1
heavy 2: not shown
light 2: B1 light 2
B6: PMX170 in bispecific format (canine CD3 arm PMX170 x Rituximab arm, human IgG4PE knob-in-hole) (bispecific antibody)
heavy 1: B1 heavy 1 with N84S, Y107F
light 1: B1 light 1
heavy 2: not shown
light 2: B1 light 2
B7: PMX169 in bispecific format (canine CD3 arm PMX169 x Rituximab arm, human IgG4PE knob-in-hole) (bispecific antibody)
heavy 1: B1 heavy 1 with L4V, A24T, T28A, S30N, S31N, S51I, T58I, G103E, R104I, Y107F
light 1: B1 light 1
heavy 2: not shown
light 2: B1 light 2
B8: PMX190 in bispecific format (canine CD3 arm PMX190 x Rituximab arm, human IgG4PE knob-in-hole) (bispecific antibody)
heavy 1: EVQLVESGGDLVKPGGSLRLSCVASGFTFSSYQMSWVRQAPGKGLQWVAYISSGGGRTTYADAVRGRLTISRDNAKNTLYLQMNSLRAEDAAVYYCAREGGGEIYGYKDYGMDYWGHGTSLFVSSASTKGPSVFPLAPCSRSTSESTAALGCLVKDYFPEPVTVSWNSGALTSGVHTFPAVLQSSGLYSLSSVVTVPSSSLGTKTYTCNVDHKPSNTKVDKRVESKYGPPCPPCPAPEFEGGPSVFLFPPKPKDTLMISRTPEVTCVVVDVSQEDPEVQFNWYVDGVEVHNAKTKPREEQFNSTYRVVSVLTVLHQDWLNGKEYKCKVSNKGLPSSIEKTISKAKGQPREPQVYTLPPSQCEMTKNQVSLSCAVKGFYPSDIAVEWESNGQPENNYKTTPPVLDSDGSFFLVSRLTVDKSRWQEGNVFSCSVMHEALHNRFTQKSLSLSLGK
light 1: B1 light 1
heavy 2: not shown
light 2: B1 light 2
B9: PMX186 in bispecific format (canine CD3 arm PMX186 x Rituximab arm, human IgG4PE knob-in-hole) (bispecific antibody)
heavy 1: B1 heavy 1 with Q3K, F27V, S31R, H33Y, S51I, R57T, G101V, G103E, R104I, Y110F
light 1: B1 light 1 with S52R
heavy 2: not shown
light 2: B1 light 2

target: canine CD3 on canine T cells (canine PBMC) (canine, UniProt P27597 22-202); test: cell-based or functional assay
Sequence (P27597 22-202 limits assumed, chain 1 of 3): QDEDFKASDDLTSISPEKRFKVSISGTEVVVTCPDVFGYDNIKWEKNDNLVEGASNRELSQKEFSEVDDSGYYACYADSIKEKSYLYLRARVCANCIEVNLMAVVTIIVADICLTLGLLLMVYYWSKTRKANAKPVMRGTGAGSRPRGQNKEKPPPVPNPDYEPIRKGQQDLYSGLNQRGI
Sequence (chain, as listed by the source limits assumed, chain 2 of 3): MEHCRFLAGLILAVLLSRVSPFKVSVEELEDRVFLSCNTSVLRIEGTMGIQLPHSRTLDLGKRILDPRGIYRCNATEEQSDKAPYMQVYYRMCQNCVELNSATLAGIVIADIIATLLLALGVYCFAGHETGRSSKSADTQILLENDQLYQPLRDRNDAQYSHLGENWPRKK
Sequence (chain, as listed by the source limits assumed, chain 3 of 3): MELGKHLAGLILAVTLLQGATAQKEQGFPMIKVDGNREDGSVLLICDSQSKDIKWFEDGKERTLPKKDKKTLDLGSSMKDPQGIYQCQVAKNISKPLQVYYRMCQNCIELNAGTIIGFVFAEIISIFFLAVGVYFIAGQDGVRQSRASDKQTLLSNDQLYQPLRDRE

Row | Binder | EC50 (M) of killing potency, bispecific killing of hCD20+GFP MDCK II cells by canine PBMC [M]
1 | B1 | 4.66e-09
2 | B2 | 3.21e-08
3 | B3 | 1.1e-08
4 | B4 | 9.44e-09
5 | B5 | 8.52e-09
6 | B6 | 3.32e-09
7 | B7 | 1.4e-08
8 | B8 | 1e-08
9 | B9 | 1.29e-08

target: T1, canine CD3εδ-Fc (heterodimer of canine CD3ε-hIgG4PE-knob and canine CD3δ-hIgG4PE-hole) (canine); test: SPR (Biacore 8K), CD3εδ-Fc amine-coupled to CM5 chip, multi-cycle kinetics, antibody 600-7.4 nM
T1 construct: also called CD3εδ-Fc fusion protein; copies: 1 + 1
Protocol: Binding affinity of shortlisted candidates, described in Example 3, were assessed using Biacore 8K (Cytiva). Briefly, a CM5 Sensor Chip (Cytiva) was docked onto a Biacore 8K, equilibrated for 30′ at RT and then Running Buffer (10 mM HEPES pH6 150 mM NaCl 3 mM EDTA and 0.005% Tween20) was applied to the SPR chip surface. Canine CD3εδ-Fc was diluted into 10 mM acetate buffer pH4.5 and immobilised using standard amine coupling reaction. Antibodies dilutions were prepared by diluting the shortlisted candidates from 600 nM to 7.4 nM (5 concentrations with 1:3 dilutions) in running buffer and kinetics was assessed using multi-cycle kinetics method (120 sec association-300 sec dissociation). Kinetics and/or Affinity quantification was performed using Biacore Insight following standard analyses methods.

T1 sequence (chain, as listed by the source mutant limits assumed): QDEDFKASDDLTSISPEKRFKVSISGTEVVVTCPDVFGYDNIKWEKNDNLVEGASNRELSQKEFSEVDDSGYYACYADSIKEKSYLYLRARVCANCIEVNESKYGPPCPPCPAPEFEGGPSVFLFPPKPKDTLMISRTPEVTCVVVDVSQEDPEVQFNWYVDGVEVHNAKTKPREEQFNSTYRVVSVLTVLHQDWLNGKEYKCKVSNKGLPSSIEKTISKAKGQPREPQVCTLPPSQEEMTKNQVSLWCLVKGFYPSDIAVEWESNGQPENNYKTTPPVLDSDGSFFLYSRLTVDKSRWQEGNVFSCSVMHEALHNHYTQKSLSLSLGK

Row | Kd [nM] | Binder
10 | 447 | B1
11 | 74.4 | B2
12 | 177 | B3
13 | 62.1 | B4
14 | 517 | B5
15 | 304 | B6
16 | 854 | B7
17 | 999 | B8
18 | 513 | B9
